Results from publication PMC6389388 (Journal of molecular biology, 2019).

B1: His-tagged hRpn10^196–306 (domain or fragment, human, UniProt P55036 196-306, looked up)
chain: MLGLGASDFEFGVDPSADPELALALRVSMEEQRQRQEEEARRAAAASAAEAGIATTGTEDSDDALLKMTISQQEFGRTGLPDLSSMTEEEQIAYAMQMSLQGAEFGQAESA
B2: UBQLN2 UBL domain (domain or fragment, human)
chain: APAEPKIIKVTVKTPKEKEEFAVPENSSVQQFKEAISKRFKSQTDQLVLIFAGKILKDQDTLIQHGIHDGLTVHLVIK

How the values were obtained:
M1 diubiquitin = M1 diubiquitin (UniProt P0CG48 1-76; P0CG48 1-76, M1 linkage between the two ubiquitins); test: pull-down
[1] = target: B1; test: NMR titration
[2] = target: B1; test: NMR structure

Binder | binding result (M1 diubiquitin) | KD of the secondary binding site (UIM-2) [1] | stoichiometry N [2]
B1 | binds | – | –
B2 | – | 24.8 ± 3.1 µM | 2
